Laboratory results from patent publication US20210380994A1, “LACTOCOCCUS LACTIS EXPRESSION SYSTEM FOR DELIVERING PROTEINS EFFICACIOUS FOR THE TREATMENT OF EPITHELIAL BARRIER FUNCTION DISORDERS” (Second Genome, Inc., priority 2018, published 2021).

B1: SG-11: Roseburia hominis protein comprising SEQ ID NO:3; tested as SEQ ID NO:5, SEQ ID NO:7 or FLAG-tagged SEQ ID NO:9 (protein, listed as Rosburia hominis)
chain: LEGEESVVYVGKKGVIASLDVETLDQSYYDETELKSYVDAEVEDYTAEHGKNAVKVESLKVEDGVAKLKMKYKTPEDYTAFNGIELYQGKVVASLAAGYVYDGEFARVEEGKVVGAATKQDIYSEDDLKVAIIRANTDVKVDGEICYVSCQNVKLTGKDSVSIRDGYYLETGSVTASVDVTGQESVGTEQLSGTEQMEMTGEPVNADDTEQTEAAAGDGSFETDVYTFIVYK
B2: SG-11V5: variant of SEQ ID NO:7 with N53S, N83S, C147V, C151S (protein)
chain: MLEGEESVVYVGKKGVIASLDVETLDQSYYDETELKSYVDAEVEDYTAEHGKSAVKVESLKVEDGVAKLKMKYKTPEDYTAFSGIELYQGKVVASLAAGYVYDGEFARVEEGKVVGAATKQDIYSEDDLKVAIIRANTDVKVDGEIVYVSSQNVKLTGKDSVSIRDGYYLETGSVTASVDVTGQESVGTEQLSGTEQMEMTGEPVNADDTEQTEAAAGDGSFETDVYTFIVYK
modifications: Artificial variant of SG-11 (N53S, N83S, C147V, C151S)

What was measured:
[1] = post-translational modification (PTM) analysis by LC/MS/MS peptide mapping; type: physicochemical; details: non-stress
Experimental: Studies were performed to identify residues of SG-11 particularly susceptible to PTMs using LC/MS/MS. The analysis was performed by LakePharma (Belmont, Calif.) to 1) confirm the amino acid sequence of SG11 (SEQ ID NO-9), and 2) determine any post-translational modification which could lead to reduced biological activity and immunogenicity, particularly deamidation and oxidation.
For peptide mapping and PTM analysis, samples were treated with DTT and IAA, followed by trypsin digestion. The digested sample was then analyzed by Waters ACQUITY UPLC coupled to Xevo G2-XS QTOF mass spectrometer using a Protein BEH C18 column.

[2] = system: trypsin
[3] = system: mice treated with DSS; experiment: DSS model of colitis with SG-11V5 protein and SG-11V5-expressing L. lactis (Example 22); type: in vivo
Experimental: Specifically, the mice in this Example 22 were treated with DSS, a chemical known to induce intestinal epithelial damage and thereby reduce intestinal barrier integrity and function. These DSS mice were then administered an L. lactis strain expressing SG-11V5 as described above, or a positive or negative control treatment.
In this study, 3 independent groups of mice (10 mice per group) were used to test the 3 different L. lactis strains: Group 1: L. lactis harboring parent pNZ8124 vector, Group 2: L. lactis harboring inducible SG-11V5 vector (PnisA:otsBA::PnisA:SPusp45:SG-11V5), and Group 3: L. lactis harboring constitutive SG-11V5 vector (PnisA:otsBA::Pusp45:SPusp45:SG-11V5). Each of the strains in Groups 1-3 had been grown until the cultures reached an OD600 of about 0.5, induced with nisin for 2 hours, concentrated to about 10^11 cells/mL in PBS with glycerol, and stored at −80° C. Cells were analyzed by Western blot to confirm protein expression. An additional 4 groups of mice (n=10 per group) were included as controls: Group 4: untreated; Group 5: treated p.o. with vehicle only; Group 6: intraperitoneal (i.p.) administration of Gly2-GLP2 (50 nmoles/kg); and Group 7: i.p. administration of SG-11V5 protein (160 nmoles/kg (4.0 mg/kg).
I.p. administration of Gly2-GLP2 and SG-11V5 was done twice per day, with i.p. administration to the right abdomen in the morning and to the left abdomen in the evening for 6 consecutive days (Day 0-Day 5) and then to the right abdomen on Day 6 prior to euthanasia and tissue recovery. Gly2-GLP2 (CPC Scientific Peptide Company) was prepared by dissolving in PBS(Corning 21-040-CV) with 5 mM NaOH to a concentration of 5 mg/mL Aliquots were stored at −80C prior to use.
Following a 7-day acclimation period, treatments wore initiated in the morning (AM) of Day 0 with i.p. administration of Gly2-GLP2 or purified SG-11V5 protein as a positive control, oral gavage of strain vehicle only (phosphate buffered saline (PBS; Corning 21-040-CV)), or with oral gavage administration of the appropriate L. lactis expression strain.
Fresh drinking water treated with 2.5% DSS was prepared and provided to all the mice on Days 0, 2, and 4 about 6 hours after AM dosing. […] Also, treatments were continued with the L. lactis strains described above once a day (q.d) in the morning with p.o. administration at 10^10 CFU of the strains comprising i) pNZ8124 vector, ii) inducible SG-11V5 vector, or iii) constitutive SG-11V5 vector.
On Day 6, only AM dosing was performed for intraperitoneal (i.p.) injection of protein and oral gavage (p.o) administration of L. lactis strains expressing SG-11V5 protein. Mice were fasted for 4 hours and then orally gavaged with 600 mg/kg 4KDa dextran labeled with fluorescin isothiocyanate (FITC) [4KDa-FITC]. About 50 minutes after the 4KDa-FITC gavage, mice were anesthetic with ketamine (ket)/xylazine (xyl) drug. Mice were injected with 10 ml/kg i.p of 10 mg/ml ketamine and 1 mg/ml xylazine (100 ul per 10 g body weight). One hour after administering 4KDa-FITC and about 10 minutes after ketamine/xylazine anesthesia, mice were euthanized, and blood and tissues were collected to assess barrier function and DSS model readouts. […]
Upon completion of the DSS models above, LBP levels were measured as an inflammation centric readout of barrier function following the protocol detailed above in Examples 7 and 13. […] LBP levels were measured in serum using a commercially available ELISA Kit (Enzo Life Sciences). […]

[4] = normalized to corresponding precursor
[5] = normalized to total peptide ion intensity
[6] = SG-11V5 protein 160 nmoles/kg i.p. b.i.d.

Row | Molecule | Deamidation N83 (peptide TPEDYTAFNGIELYQGK), % peptide [1, 4] [%] | Deamidation N137 (peptide ANTDVK), % peptide [1, 4] [%] | Deamidation N153 (peptide VDGEICYVSCQNVK), % peptide [1, 4] [%] | Deamidation N53 (peptide NAVK), % peptide ([1]; normalized to total intensity of corresponding precursor with or without modification) [%] | Deamidation N53 (peptide NAVK), % total ion [1, 5] [%] | Deamidation N83 (peptide TPEDYTAFNGIELYQGK), % total ion [1, 5] [%] | Deamidation N137 (peptide ANTDVK), % total ion [1, 5] [%] | Deamidation N153 (peptide VDGEICYVSCQNVK), % total ion [1, 5] [%] | Oxidation M1 (peptide MLEGEESVVYVGK), % total ion [1, 5] [%] | cleavage by trypsin (SDS-PAGE) [2] | body weight ([3]; SG-11V5 160 nmoles/kg i.p. b.i.d., day 6) | colon length [3, 6] | colon weight-to-length ratio [3, 6] | gross pathology (clinical score 0-5) ([3]; SG-11V5 protein 160 nmoles/kg i.p. b.i.d., p<0.0001) | 4KDa-FITC dextran translocation across the epithelial barrier ([3]; SG-11V5 protein 160 nmoles/kg i.p. b.i.d., vs DSS + vehicle)
1 | B1 | 3.77 | 1.03 | 0.2 | 7.84 | 0.01 | 0.25 | 0.25 | 0.01 | <0.01 | a predominant band is generated in the presence of trypsin |  |  |  |  | 
2 | B2 |  |  |  |  |  |  |  |  |  |  | significant improvement in body weight | significant increase in the colon length | significant decrease in the colon weight-to-length ratio | significant improvement in gross pathology | non-significant increase
